Biological target: T1, Fur (ferric uptake regulator) (Salmonella enterica (strain for cloning not stated; SL1344/SV5015 used in the paper)) (UniProt A0A0H3NJ13)
T1 sequence: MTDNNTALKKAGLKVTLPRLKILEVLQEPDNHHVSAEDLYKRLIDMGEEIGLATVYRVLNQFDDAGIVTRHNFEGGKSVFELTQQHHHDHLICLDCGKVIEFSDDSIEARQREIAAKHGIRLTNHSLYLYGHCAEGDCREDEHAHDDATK
Assay: EMSA
Details: EMSA: 10 mM Bis-Tris/borate pH 7.5, 5% glycerol, 1 mM MgCl2, 40 mM KCl, 100 ug/ml BSA, 0.2 mg/ml salmon sperm DNA, 100 uM MnCl2, 20 nM probe, 10 min 37 C …

Substance	binding	Kd [nM]
AGTTATCTGCGGCAGGACGCTGATGACTATTACTTACAAAGGTTACATTTTCCATATTATCCCTTTGTTGATGTTATTTTAATGTTCCTTACTGGTATCCTACTGA (double strand) [FrgC]	no binding	–
AGTTATCTGCGGCAGGACGCTGATGACTATTACTTACAAAGGTTACATTTTCCATATTATCCCTTTGTTGATGTTATTTTAATGTTCCTTACTGGTATCCTACTGAAAAAATCTGAGTTGTAAATGCTCTTTATTAGCGTGTGTTGGCAATGGTCTGATTGTTACACCAAAAGAACCCAAATTTGGGTAATTTATCTACAGTAGTTTAAGCCCCAATGGGGATGATGGTTCTTTTAATATGTGTTGAGACGCATTATACA (double strand) [FrgB]	no binding	–
FrgA (PhilD)	–	4.5
